Data taken from patent US20150374663A1.
Ends that are not written are not given here.

B1: 5% TBP-functionalized PEG polymer of Table 4, M:CTA:I 250:1:0.1, Mn 42.3 kDa (peptide)
peptide: TPLSYLKGLVTVG-OH
modifications: not fully specified (N-terminus); also: RAFT copolymer with PEG methyl ether methacrylate (300 Da), about 5 peptides per chain
B2: 5% TBP-functionalized PEG polymer of Table 4, M:CTA:I 600:1:0.1, Mn 98.2 kDa (peptide)
peptide: TPLSYLKGLVTVG-OH
modifications: not fully specified (N-terminus); also: RAFT copolymer with PEG methyl ether methacrylate (300 Da), about 11 peptides per chain
B3: 20% TBP-functionalized PEG polymer of Table 4, M:CTA:I 500:1:0.1, Mn 32.7 kDa (peptide)
peptide: TPLSYLKGLVTVG-OH
modifications: not fully specified (N-terminus); also: RAFT copolymer with PEG methyl ether methacrylate (300 Da), about 12 peptides per chain
B4: 5% peptide monomer TBP-functionalized PEG polymer of Table 1 (Mn 103900 Da, 3.9% peptide incorporated) (peptide)
peptide: TPLSYLKGLVTVG-OH
modifications: not fully specified (N-terminus); also: RAFT random copolymer with PEG monomethyl ether methacrylate
B5: 10% peptide monomer TBP-functionalized PEG polymer of Table 1 (Mn 69000 Da, 7.5% peptide incorporated) (peptide)
peptide: TPLSYLKGLVTVG-OH
modifications: not fully specified (N-terminus); also: RAFT random copolymer with PEG monomethyl ether methacrylate
B6: 20% peptide monomer TBP-functionalized PEG polymer of Table 1 (Mn 26700 Da, 17.1% peptide incorporated) (peptide)
peptide: TPLSYLKGLVTVG-OH
modifications: not fully specified (N-terminus); also: RAFT random copolymer with PEG monomethyl ether methacrylate
B7: 5% TBP-functionalized PEG polymer of Table 4, M:CTA:I 125:1:0.1, Mn 17.1 kDa (peptide)
peptide: TPLSYLKGLVTVG-OH
modifications: not fully specified (N-terminus); also: RAFT copolymer with PEG methyl ether methacrylate (300 Da), about 3 peptides per chain

Legend:
[1] = target: type V tartrate-resistant acid phosphatase (TRAP) protein, immobilised on CM5 sensor chip; assay: SPR, TRAP amine-coupled to CM5 chip, initial rate analysis of sensorgrams
[2] = target: type V tartrate-resistant acid phosphatase (TRAP) protein, immobilised on CM5 sensor chip; assay: SPR, TRAP-functionalized surface, binding curve fit (n = 2, Ave. ± StDev)
[3] = target: type V tartrate-resistant acid phosphatase (TRAP) protein, immobilised on CM5 sensor chip; assay: SPR, TRAP-functionalized surface; upper end of the range told of the peptide-functionalized polymers, tied to the 5% polymer through Table 1
[4] = target: type V tartrate-resistant acid phosphatase (TRAP) protein, immobilised on CM5 sensor chip; assay: SPR, TRAP-functionalized surface; lower end of the range told of the peptide-functionalized polymers, tied to the 20% polymer through Table 1

Row | Binder | Kd [1] [µM] | Kd [2] [µM] | further results
1 | B1 | 80 | – | –
2 | B2 | 140 | – | –
3 | B3 | 70 | – | –
4 | B4 | – | 21.7 | Kd [3]: 7.1 to 21 µM
5 | B5 | – | 12.7 | –
6 | B6 | – | 7.5 | Kd [4]: 7.1 to 21 µM
7 | B7 | 70 | – | –
